Results as given in patent US20100166764A1 (Eli Lilly, published 2010).
Where a chain is given by its changes, count along the chain named. Names and notes keep the numbering of the source. Values belong to the binder of their own block, whether it stands above or below them.

Tests used:
mature myostatin [1] = biological target: T1, mature myostatin (human, murine, rat, chicken, turkey, …, UniProt O08689 268-376 (mouse entry)); test: cell-based or functional assay
T1 sequence: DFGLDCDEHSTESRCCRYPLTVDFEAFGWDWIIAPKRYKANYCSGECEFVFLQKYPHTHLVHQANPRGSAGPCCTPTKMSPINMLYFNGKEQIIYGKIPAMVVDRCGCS

mature myostatin [2] = biological target: T1, mature myostatin; test: ELISA, myostatin coated, periprep Fab titrated, anti-human-kappa-AP
Procedure: (§1) ELISA plates are coated with myostatin diluted to 4 ug/ml in carbonate buffer (50 mM NaHCO₃ pH 8.3) and 50 μL added per well. Plates are covered with sealing tape and incubate overnight at 4° C. Thereafter, plates (Greiner U-bottom plates Cat #650061) are washed three times with PBS-T (0.1% Tween-20) using an automatic plate washer. 200 μL of blocking buffer (PBS+1% BSA+0.1% Tween-20) is added to every well and incubated at room temperature for one hour. Plates are washed and 50 μl of sample added per well. Samples are composed of periprep Fabs diluted in PBST/BSA starting at a 1:3 dilution and then serially diluted in half-log steps. Plates are washed and 50 μL of secondary antibody solution (1:2000 goat anti-human-kappa-AP Southern Biotech Cat # 2060-04 in PBST/BSA) is added to every well. Following an additional wash step, 100 μL of AP substrate is added per well and incubates at room temperature for about 10 minutes. The absorbance or OD at 560 nm is read. C12 or 510C2 is included on each ELISA plate as an affinity reference standard. The concentration of Fabs is determined by a quantitative ELISA using an anti-Fd antibody (Sheep anti-Fd Biodesign) to capture protein and goat anti-human-kappa-AP (Southern Biotech) to detect. A purified Fab standard is run on each plate to generate a standard curve for the concentration determinations.

mature myostatin [3] = biological target: T1, mature myostatin; test: ELISA on plate-coated myostatin, periprep Fab in serial dilution, detection with goat anti-human-kappa-AP, O.D. against Fab concentration (ng/ml)
Procedure: as §1

B1: Mab C12 (antibody, V domains shown)
VH: QLQLQESGPGLVKPSETLSLTCTVSGFSLRKVGSSVSWIRQPPGKGLEWIGHIYWDDDKRLNPSLRNRVTISVDTSKNQFSLKLSSVTAADTAVYYCARRAITTVIGGGTFDLWGQGTLVTVSS
VL: DIQMTQSPSSLSASVGDRVTITCSASSSISYMHWYQQKPGKAPKLLIYDTSKLARGVPSRFSGSGSGTDFTLTISSLQPEDFATYYCQQWYLNPLTFGGGTKVEIKR
IC50 in the myostatin/SBE reporter assay (luciferase, HEK293 EBNA cells) (mature myostatin [1]): ~9.59 nM

B2: C12-N93H (antibody, human IgG4 S228P, kappa, V domains shown)
VH: B1 VH
VL: B1 VL with N93H
IC50 in the myostatin/SBE reporter assay (luciferase, HEK293 EBNA cells) (mature myostatin [1]): ~7.03 nM

B3: C12 Fab with the Asn residue in CDRL3 replaced with glutamine (Fab, V domains shown)
VH: B1 VH
VL: B1 VL with N93Q
notes: Periprep Fab
binding result (mature myostatin [2]): binds

B4: C12 Fab with the Asn residue in CDRL3 replaced with tryptophan (Fab, V domains shown)
VH: B1 VH
VL: B1 VL with N93W
notes: Periprep Fab
binding result (mature myostatin [2]): binds

B5: C12 Fab with the Asn residue in CDRL3 replaced with cysteine (Fab, V domains shown)
VH: B1 VH
VL: B1 VL with N93C
notes: Periprep Fab
binding result (mature myostatin [2]): binds

B6: C12 Fab with the Asn residue in CDRL3 replaced with phenylalanine (Fab, V domains shown)
VH: B1 VH
VL: B1 VL with N93F
notes: Periprep Fab
binding result (mature myostatin [2]): binds

B7: C12 Fab with the Asn residue in CDRL3 replaced with lysine (Fab, V domains shown)
VH: B1 VH
VL: B1 VL with N93K
notes: Periprep Fab
binding result (mature myostatin [2]): binds

B8: C12 Fab with the Asn residue in CDRL3 replaced with alanine (Fab, V domains shown)
VH: B1 VH
VL: B1 VL with N93A
notes: Periprep Fab
binding result (mature myostatin [2]): binds

B9: C12 Fab with the Asn residue in CDRL3 replaced with valine (Fab, V domains shown)
VH: B1 VH
VL: B1 VL with N93V
notes: Periprep Fab
binding result (mature myostatin [2]): binds

The next lines start with the values.

binding result (mature myostatin [3]): binds
B10: C12 Fab with the Asn residue in CDRL3 replaced with R (Fab, V domains shown)
VH: B1 VH
VL: B1 VL with N93R
notes: Periprep Fab

binding result (mature myostatin [2]): binds
B11: C12 Fab with the Asn residue in CDRL3 replaced with leucine (Fab, V domains shown)
VH: B1 VH
VL: B1 VL with N93L
notes: Periprep Fab

binding result (mature myostatin [2]): binds
B12: C12 Fab with the Asn residue in CDRL3 replaced with glutamic acid (Fab, V domains shown)
VH: B1 VH
VL: B1 VL with N93E
notes: Periprep Fab

binding result (mature myostatin [2]): binds
B13: C12 Fab with the Asn residue in CDRL3 replaced with threonine (Fab, V domains shown)
VH: B1 VH
VL: B1 VL with N93T
notes: Periprep Fab

binding result (mature myostatin [2]): binds
B14: C12 Fab with the Asn residue in CDRL3 replaced with proline (Fab, V domains shown)
VH: B1 VH
VL: B1 VL with N93P
notes: Periprep Fab

binding result (mature myostatin [2]): binds
B15: C12 Fab with the Asn residue in CDRL3 replaced with glycine (Fab, V domains shown)
VH: B1 VH
VL: B1 VL with N93G
notes: Periprep Fab

binding result (mature myostatin [2]): binds
B16: C12 Fab with the Asn residue in CDRL3 replaced with tyrosine (Fab, V domains shown)
VH: B1 VH
VL: B1 VL with N93Y
notes: Periprep Fab

binding result (mature myostatin [2]): binds
B17: C12 Fab with the Asn residue in CDRL3 replaced with isoleucine (Fab, V domains shown)
VH: B1 VH
VL: B1 VL with N93I
notes: Periprep Fab

binding result (mature myostatin [2]): binds
B18: C12 Fab with the Asn residue in CDRL3 replaced with aspartic acid (Fab, V domains shown)
VH: B1 VH
VL: B1 VL with N93D
notes: Periprep Fab

binding result (mature myostatin [2]): binds
B19: C12 Fab with the Asn residue in CDRL3 replaced with serine (Fab, V domains shown)
VH: B1 VH
VL: B1 VL with N93S
notes: Periprep Fab

binding result (mature myostatin [2]): binds
B20: C12 Fab with the Asn residue in CDRL3 replaced with methionine (Fab, V domains shown)
VH: B1 VH
VL: B1 VL with N93M
notes: Periprep Fab
